US11034759B2, “Humanized M-CSF specific monoclonal antibodies, kits, and uses thereof” (NOVARTIS VACCINES AND DIAGNOSTICS, INC., priority 2004, dated 2021)

Tests used:
[1] = target: T1, MCSF (Homo sapiens, UniProt P09603); test: Biacore analysis of Human Engineered RX1 antibodies, M-CSF immobilized (Example 13); assay type: binding
T1 sequence (P09603 33-255 limits assumed): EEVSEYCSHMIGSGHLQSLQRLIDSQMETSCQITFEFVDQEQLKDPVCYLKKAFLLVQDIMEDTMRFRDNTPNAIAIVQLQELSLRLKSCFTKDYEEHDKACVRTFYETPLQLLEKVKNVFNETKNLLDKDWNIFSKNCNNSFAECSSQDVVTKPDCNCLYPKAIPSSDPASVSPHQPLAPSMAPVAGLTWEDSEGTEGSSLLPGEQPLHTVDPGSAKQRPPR
Description: To determine the relative differences in the binding affinity of intact antibodies by Biacore analysis, M-CSF was immobilized onto CMS biosensor chip via amine coupling. 0.05 μg/ml M-CSF in 10 mM Na-Acetate pH 4.0 was injected at 1 μl/min for 5 minutes to achieve RL=6-12 RU. Test antibody or Fab fragments were flowed over the modified biosensor surface at varying concentrations ranging from 100 nM to 1.5 nM in 2-fold dilutions. Test antibodies were diluted in 0.01 M HEPES pH 7.4, 0.15 M NaCL, 3 mM EDTA, 0.005% Surfactant P20 (HBS-EP) and all experiments were done at 25° C. Each concentration point and buffer blanks were run in triplicate, and data was collected over 3 minutes of association and 8 minutes of dissociation. Kinetic and affinity constants were determined using Biaevaluation software with a 1:1 interaction model/global fit.

[2] = target: T1, MCSF; test: Size of antigen-antibody complex by size exclusion chromatography or light scattering; conditions: M-CSF and antibody at equal molar ratios

B1: heRX1-9.G2: Human Engineered RX1: light chain Low + Mod Risk (Germline), heavy chain Low Risk (Kabat), Gamma 2 (antibody)
heavy: DVQLQESGPGLVKPSQTLSLTCTVTDYSITSDYAWNWIRQFPGKKLEWMGYISYSGSTSYNPSLKSRITISRDTSKNQFSLQLNSVTAADTATYYCASFDYAHAMDYWGQGTTVTVSS
light: DIVLTQSPAFLSVTPGEKVTFTCQASQSIGTSIHWYQQKTDQAPKLLIKYASESISGIPSRFSGSGSGTDFTLTISSVEAEDAADYYCQQINSWPTTFGGGTKLEIKRT
modifications: left off: a dimerising Fc or GST
In the case of B1, the “ka” value ([1]; Table 11, 25° C.) is reported as 200000 M⁻¹ s⁻¹, the “kd” value ([1]; Table 11, 25° C.) is reported as 0.00144 s⁻¹ and the “Size of antigen-antibody complex” value [2] is reported as “about 400 kDa”. For the same molecule, the “Type of antigen-antibody complex formed with MCSF” value (“Type” for short) [2] was 2:1 or 2:2 complexes.

B2: heRX1-10.G2: Human Engineered RX1: light chain Low + Mod Risk (Germline), heavy chain Low + Mod Risk (Kabat), Gamma 2 (antibody)
heavy: QVQLQESGPGLVKPSQTLSLTCTVSDYSITSDYAWNWIRQFPGKGLEWMGYISYSGSTSYNPSLKSRITISRDTSKNQFSLQLNSVTAADTAVYYCASFDYAHAMDYWGQGTTVTVSS
light: DIVLTQSPAFLSVTPGEKVTFTCQASQSIGTSIHWYQQKTDQAPKLLIKYASESISGIPSRFSGSGSGTDFTLTISSVEAEDAADYYCQQINSWPTTFGGGTKLEIKRT
modifications: left off: a dimerising Fc or GST
In the case of B2, the “kd (sec-1)” value ([1]; Table 10, 25° C.) is reported as “(1.1 ± 0.11) × 10^−3 sec-1”, the “kd (sec-1)” value ([1]; Table 11, 25° C.) is reported as “(1.1 ± 0.11) × 10^−3 sec-1” and the “Size of antigen-antibody complex” value [2] is reported as “about 400 kDa”. The “Type” value [2] was 2:1 or 2:2 complexes.

B3: heRX1-1.G2: Human Engineered RX1: light chain Low Risk (Kabat), heavy chain Low Risk (Kabat), Gamma 2 (antibody)
heavy: DVQLQESGPGLVKPSQTLSLTCTVTDYSITSDYAWNWIRQFPGKKLEWMGYISYSGSTSYNPSLKSRITISRDTSKNQFSLQLNSVTAADTATYYCASFDYAHAMDYWGQGTTVTVSS
light: EIVLTQSPGTLSVSPGERVTFSCRASQSIGTSIHWYQQKTGQSPRLLIKYASERISGIPDRFSGSGSGTDFTLTISRVESEDFADYYCQQINSWPTTFGQGTKLEIKRT
modifications: left off: a dimerising Fc or GST
B3 was tested, and the “kd (sec-1)” value ([1]; Table 10, 25° C.) was “(1.37 ± 0.24) × 10^−3 sec-1”, the “kd (sec-1)” value ([1]; Table 11, 25° C.) was “(1.37 ± 0.24) × 10^−3 sec-1” and the “Size of antigen-antibody complex” value [2] was “greater than 2×10^6 Da”. The “Type” value [2] was “large lattice aggregates”.

B4: heRX1-4.G2: Human Engineered RX1: light chain Low + Mod Risk (Kabat), heavy chain Low + Mod Risk (Kabat), Gamma 2 (antibody)
heavy: QVQLQESGPGLVKPSQTLSLTCTVSDYSITSDYAWNWIRQFPGKGLEWMGYISYSGSTSYNPSLKSRITISRDTSKNQFSLQLNSVTAADTAVYYCASFDYAHAMDYWGQGTTVTVSS
light: EIVLTQSPGTLSVSPGERVTFSCRASQSIGTSIHWYQQKTGQAPRLLIKYASERATGIPDRFSGSGSGTDFTLTISRVESEDFADYYCQQINSWPTTFGQGTKLEIKRT
modifications: left off: a dimerising Fc or GST
In the case of B4, the “ka” value ([1]; Table 11, 25° C.) is reported as 238000 M⁻¹ s⁻¹ and the “kd” value ([1]; Table 11, 25° C.) is reported as 0.00108 s⁻¹.

B5: heRX1-5.G2: Human Engineered RX1: light chain Low Risk (Kabat) − R54 to S, heavy chain Low Risk (Kabat), Gamma 2 (antibody)
heavy: DVQLQESGPGLVKPSQTLSLTCTVTDYSITSDYAWNWIRQFPGKKLEWMGYISYSGSTSYNPSLKSRITISRDTSKNQFSLQLNSVTAADTATYYCASFDYAHAMDYWGQGTTVTVSS
light: EIVLTQSPGTLSVSPGERVTFSCRASQSIGTSIHWYQQKTGQSPRLLIKYASESISGIPDRFSGSGSGTDFTLTISRVESEDFADYYCQQINSWPTTFGQGTKLEIKRT
modifications: left off: a dimerising Fc or GST
For B5, the “ka” value ([1]; Table 11, 25° C.) was 175000 M⁻¹ s⁻¹ and the “kd” value ([1]; Table 11, 25° C.) was 0.00129 s⁻¹.

B6: heRX1-7.G2: Human Engineered RX1: light chain Low + Mod Risk (Kabat) − RAT54, 55, 56 to SIS, heavy chain Low Risk (Kabat), Gamma 2 (antibody, V domains shown)
VH: DVQLQESGPGLVKPSQTLSLTCTVTDYSITSDYAWNWIRQFPGKKLEWMGYISYSGSTSYNPSLKSRITISRDTSKNQFSLQLNSVTAADTATYYCASFDYAHAMDYWGQGTTVTVSS
VL: EIVLTQSPGTLSVSPGERVTFSCRASQSIGTSIHWYQQKTGQAPRLLIKYASESISGIPDRFSGSGSGTDFTLTISRVESEDFADYYCQQINSWPTTFGQGTKLEIK
In the case of B6, the “ka” value ([1]; Table 11, 25° C.) is reported as 157000 M⁻¹ s⁻¹ and the “kd” value ([1]; Table 11, 25° C.) is reported as 0.00149 s⁻¹.

B7: heRX1-8.G2: Human Engineered RX1: light chain Low + Mod Risk (Kabat) − RAT 54, 55, 56 to SIS, heavy chain Low + Mod Risk (Kabat), Gamma 2 (antibody, V domains shown)
VH: QVQLQESGPGLVKPSQTLSLTCTVSDYSITSDYAWNWIRQFPGKGLEWMGYISYSGSTSYNPSLKSRITISRDTSKNQFSLQLNSVTAADTAVYYCASFDYAHAMDYWGQGTTVTVSS
VL: EIVLTQSPGTLSVSPGERVTFSCRASQSIGTSIHWYQQKTGQAPRLLIKYASESISGIPDRFSGSGSGTDFTLTISRVESEDFADYYCQQINSWPTTFGQGTKLEIK
In the case of B7, the “ka” value ([1]; Table 11, 25° C.) is reported as 152000 M⁻¹ s⁻¹ and the “kd” value ([1]; Table 11, 25° C.) is reported as 0.00148 s⁻¹.

B8: heRX1-2.G2: Human Engineered RX1: light chain Low Risk (Kabat), heavy chain Low + Mod Risk (Kabat), Gamma 2 (antibody)
heavy: QVQLQESGPGLVKPSQTLSLTCTVSDYSITSDYAWNWIRQFPGKGLEWMGYISYSGSTSYNPSLKSRITISRDTSKNQFSLQLNSVTAADTAVYYCASFDYAHAMDYWGQGTTVTVSS
light: EIVLTQSPGTLSVSPGERVTFSCRASQSIGTSIHWYQQKTGQSPRLLIKYASERISGIPDRFSGSGSGTDFTLTISRVESEDFADYYCQQINSWPTTFGQGTKLEIKRT
modifications: left off: a dimerising Fc or GST
With B8 the “ka” value ([1]; Table 11, 25° C.) was 218000 M⁻¹ s⁻¹ and the “kd” value ([1]; Table 11, 25° C.) was 0.00165 s⁻¹.

B9: heRX1-3.G2: Human Engineered RX1: light chain Low + Mod Risk (Kabat), heavy chain Low Risk (Kabat), Gamma 2 (antibody)
heavy: DVQLQESGPGLVKPSQTLSLTCTVTDYSITSDYAWNWIRQFPGKKLEWMGYISYSGSTSYNPSLKSRITISRDTSKNQFSLQLNSVTAADTATYYCASFDYAHAMDYWGQGTTVTVSS
light: EIVLTQSPGTLSVSPGERVTFSCRASQSIGTSIHWYQQKTGQAPRLLIKYASERATGIPDRFSGSGSGTDFTLTISRVESEDFADYYCQQINSWPTTFGQGTKLEIKRT
modifications: left off: a dimerising Fc or GST
For B9, the “ka” value ([1]; Table 11, 25° C.) was 201000 M⁻¹ s⁻¹ and the “kd” value ([1]; Table 11, 25° C.) was 0.00118 s⁻¹.
